{"source": "patent US6322962A", "about": "“Sterol-regulated Site-1 protease and assays of modulators thereof” (Board of Regents, The University of Texas System, priority 1999, dated 2001)", "molecules": {"B1": {"name": "Site-B mutant: S1P with amino acids 134-137 mutated from RSLK to AAAA (protein)", "chain": "MKLINIWLLLLVVLLCGKKHLGDRLGKKAFEKASCPSCSHLTLKVEFSSTVVEYEYIVAFNGYFTAKARNSFISSALKSSEVDNWRIIPRNNPSSDYPSDFEVIQIKEKQKAGLLTLEDHPNIKRVTPQRKVFAAAAFAESDPIVPCNETRWSQKWQSSRPLRRASLSLGSGFWHATGRHSSRRLLRAIPRQVAQTLQADVLWQMGYTGANVRVAVFDTGLSEKHPHFKNVKERTNWTNERTLDDGLGHGTFVAGVIASMRECQGFAPDAELHIFRVFTNNQVSYTSWFLDAFNYAILKKIDVLNLSIGGPDFMDHPFVDKVWELTANNVIMVSAIGNDGPLYGTLNNPADQMDVIGVGGIDFEDNIARFSSRGMTTWELPGGYGRVKPDIVTYGAGVRGSGVKGGCRALSGTSVASPVVAGAVTLLVSTVQKRELVNPASVKQALIASARRLPGVNMFEQGHGKLDLLRAYQILSSYKPQASLSPSYIDLTECPYMWPYCSQPIYYGGMPTIVNVTILNGMGVTGRIVDKPEWRPYLPQNGDNIEVAFSYSSVLWPWSGYLAISISVTKKAASWEGIAQGHIMITVASPAETEAKNGAEHTSTVKLPIKVKIIPTPPRSKRVLWDQYHNLRYPPGYFPRDNLRMKNDPLDWNGDHVHTNFRDMYQHLRSMGYFVEVLGAPFTCFDATQYGTLLMVDSEEEYFPEEIAKLRRDVDNGLSLVIFSDWYNTSVMRKVKFYDENTRQWWMPDTGGANIPALNELLSVWNMGFSDGLYEGEFALANHDMYYASGCSIAKFPEDGVVITQTFKDQGLEVLKQETAVVENVPILGLYQIPAEGGGRIVLYGDSNCLDDSHRQKDCFWLLDALLQYTSYGVNPPSLSHSGNRQRPPSGAGLAPPERMEGNHLHRYSKVLEAHLGDPKPRPLPACPHLSWAKPQPLNETAPSNLWKHQKLLSIDLDKVVLPNFRSNRPQVRPLSPGESGAWDIPGGIMPGRYNQEVGQTIPVFAFLGAMVALAFFVVQISKAKSRPKRRRPRAKRPQLTQQTHPPRTPSV"}, "B2": {"name": "Site B+C mutant: S1P containing both the Site-B and Site-C mutations (protein)", "chain": "DGGRSEQKLISEEDLNGEQKLISEEDLNGEQKLISEEDLNSSGRLGKKAFEKASCPSCSHLTLKVEFSSTVVEYEYIVAFNGYFTAKARNSFISSALKSSEVDNWRIIPRNNPSSDYPSDFEVIQIKEKQKAGLLTLEDHPNIKRVTPQRKVFAAAAFAESDPIVPCNETRWSQKWQSSRPLVAASLSLGSGFWHATGRHSSAAAAAAIPRQVAQTLQADVLWQMGYTGANVRVAVFDTGLSEKHPHFKNVKERTNWTNERTLDDGLGHGTFVAGVIASMRECQGFAPDAELHIFRVFTNNQVSYTSWFLDAFNYAILKKIDVLNLSIGGPDFMDHPFVDKVWELTANNVIMVSAIGNDGPLYGTLNNPADQMDVIGVGGIDFEDNIARFSSRGMTTWELPGGYGRVKPDIVTYGAGVRGSGVKGGCRALSGTSVASPVVAGAVTLLVSTVQKRELVNPASVKQALIASARRLPGVNMFEQGHGKLDLLRAYQILSSYKPQASLSPSYIDLTECPYMWPYCSQPIYYGGMPTIVNVTILNGMGVTGRIVDKPEWRPYLPQNGDNIEVAFSYSSVLWPWSGYLAISISVTKKAASWEGIAQGHIMITVASPAETEAKNGAEHTSTVKLPIKVKIIPTPPRSKRVLWDQYHNLRYPPGYFPRDNLRMKNDPLDWNGDHVHTNFRDMYQHLRSMGYFVEVLGAPFTCFDATQYGTLLMVDSEEEYFPEEIAKLRRDVDNGLSLVIFSDWYNTSVMRKVKFYDENTRQWWMPDTGGANIPALNELLSVWNMGFSDGLYEGEFALANHDMYYASGCSIAKFPEDGVVITQTFKDQGLEVLKQETAVVENVPILGLYQIPAEGGGRIVLYGDSNCLDDSHRQKDCFWLLDALLQYTSYGVNPPSLSHSGNRQRPPSGAGLAPPERMEGNHLHRYSKVLEAHLGDPKPRPLPACPHLSWAKPQPLNETAPSNLWKHQKLLSIDLDKVVLPNFRSNRPQVRPLSPGESGAWDIPGGIMPGRYNQEVGQTIPVFAFLGAMVALAFFVVQISKAKSRPKRRRPRAKRPQLTQQTHPPRTPSV"}, "B3": {"name": "S1P-A: amino acids 23-1052 of SEQ ID NO:1 (protein)", "chain": "DRLGKKAFEKASCPSCSHLTLKVEFSSTVVEYEYIVAFNGYFTAKARNSFISSALKSSEVDNWRIIPRNNPSSDYPSDFEVIQIKEKQKAGLLTLEDHPNIKRVTPQRKVFRSLKFAESDPIVPCNETRWSQKWQSSRPLRRASLSLGSGFWHATGRHSSRRLLRAIPRQVAQTLQADVLWQMGYTGANVRVAVFDTGLSEKHPHFKNVKERTNWTNERTLDDGLGHGTFVAGVIASMRECQGFAPDAELHIFRVFTNNQVSYTSWFLDAFNYAILKKIDVLNLSIGGPDFMDHPFVDKVWELTANNVIMVSAIGNDGPLYGTLNNPADQMDVIGVGGIDFEDNIARFSSRGMTTWELPGGYGRVKPDIVTYGAGVRGSGVKGGCRALSGTSVASPVVAGAVTLLVSTVQKRELVNPASVKQALIASARRLPGVNMFEQGHGKLDLLRAYQILSSYKPQASLSPSYIDLTECPYMWPYCSQPIYYGGMPTIVNVTILNGMGVTGRIVDKPEWRPYLPQNGDNIEVAFSYSSVLWPWSGYLAISISVTKKAASWEGIAQGHIMITVASPAETEAKNGAEHTSTVKLPIKVKIIPTPPRSKRVLWDQYHNLRYPPGYFPRDNLRMKNDPLDWNGDHVHTNFRDMYQHLRSMGYFVEVLGAPFTCFDATQYGTLLMVDSEEEYFPEEIAKLRRDVDNGLSLVIFSDWYNTSVMRKVKFYDENTRQWWMPDTGGANIPALNELLSVWNMGFSDGLYEGEFALANHDMYYASGCSIAKFPEDGVVITQTFKDQGLEVLKQETAVVENVPILGLYQIPAEGGGRIVLYGDSNCLDDSHRQKDCFWLLDALLQYTSYGVNPPSLSHSGNRQRPPSGAGLAPPERMEGNHLHRYSKVLEAHLGDPKPRPLPACPHLSWAKPQPLNETAPSNLWKHQKLLSIDLDKVVLPNFRSNRPQVRPLSPGESGAWDIPGGIMPGRYNQEVGQTIPVFAFLGAMVALAFFVVQISKAKSRPKRRRPRAKRPQLTQQTHPPRTPSV"}, "B4": {"name": "S1P-B: amino acids 138-1052 of SEQ ID NO:1 (protein)", "chain": "FAESDPIVPCNETRWSQKWQSSRPLRRASLSLGSGFWHATGRHSSRRLLRAIPRQVAQTLQADVLWQMGYTGANVRVAVFDTGLSEKHPHFKNVKERTNWTNERTLDDGLGHGTFVAGVIASMRECQGFAPDAELHIFRVFTNNQVSYTSWFLDAFNYAILKKIDVLNLSIGGPDFMDHPFVDKVWELTANNVIMVSAIGNDGPLYGTLNNPADQMDVIGVGGIDFEDNIARFSSRGMTTWELPGGYGRVKPDIVTYGAGVRGSGVKGGCRALSGTSVASPVVAGAVTLLVSTVQKRELVNPASVKQALIASARRLPGVNMFEQGHGKLDLLRAYQILSSYKPQASLSPSYIDLTECPYMWPYCSQPIYYGGMPTIVNVTILNGMGVTGRIVDKPEWRPYLPQNGDNIEVAFSYSSVLWPWSGYLAISISVTKKAASWEGIAQGHIMITVASPAETEAKNGAEHTSTVKLPIKVKIIPTPPRSKRVLWDQYHNLRYPPGYFPRDNLRMKNDPLDWNGDHVHTNFRDMYQHLRSMGYFVEVLGAPFTCFDATQYGTLLMVDSEEEYFPEEIAKLRRDVDNGLSLVIFSDWYNTSVMRKVKFYDENTRQWWMPDTGGANIPALNELLSVWNMGFSDGLYEGEFALANHDMYYASGCSIAKFPEDGVVITQTFKDQGLEVLKQETAVVENVPILGLYQIPAEGGGRIVLYGDSNCLDDSHRQKDCFWLLDALLQYTSYGVNPPSLSHSGNRQRPPSGAGLAPPERMEGNHLHRYSKVLEAHLGDPKPRPLPACPHLSWAKPQPLNETAPSNLWKHQKLLSIDLDKVVLPNFRSNRPQVRPLSPGESGAWDIPGGIMPGRYNQEVGQTIPVFAFLGAMVALAFFVVQISKAKSRPKRRRPRAKRPQLTQQTHPPRTPSV"}, "B5": {"name": "S1P-C: amino acids 187-1052 of SEQ ID NO:1 (protein)", "chain": "RAIPRQVAQTLQADVLWQMGYTGANVRVAVFDTGLSEKHPHFKNVKERTNWTNERTLDDGLGHGTFVAGVIASMRECQGFAPDAELHIFRVFTNNQVSYTSWFLDAFNYAILKKIDVLNLSIGGPDFMDHPFVDKVWELTANNVIMVSAIGNDGPLYGTLNNPADQMDVIGVGGIDFEDNIARFSSRGMTTWELPGGYGRVKPDIVTYGAGVRGSGVKGGCRALSGTSVASPVVAGAVTLLVSTVQKRELVNPASVKQALIASARRLPGVNMFEQGHGKLDLLRAYQILSSYKPQASLSPSYIDLTECPYMWPYCSQPIYYGGMPTIVNVTILNGMGVTGRIVDKPEWRPYLPQNGDNIEVAFSYSSVLWPWSGYLAISISVTKKAASWEGIAQGHIMITVASPAETEAKNGAEHTSTVKLPIKVKIIPTPPRSKRVLWDQYHNLRYPPGYFPRDNLRMKNDPLDWNGDHVHTNFRDMYQHLRSMGYFVEVLGAPFTCFDATQYGTLLMVDSEEEYFPEEIAKLRRDVDNGLSLVIFSDWYNTSVMRKVKFYDENTRQWWMPDTGGANIPALNELLSVWNMGFSDGLYEGEFALANHDMYYASGCSIAKFPEDGVVITQTFKDQGLEVLKQETAVVENVPILGLYQIPAEGGGRIVLYGDSNCLDDSHRQKDCFWLLDALLQYTSYGVNPPSLSHSGNRQRPPSGAGLAPPERMEGNHLHRYSKVLEAHLGDPKPRPLPACPHLSWAKPQPLNETAPSNLWKHQKLLSIDLDKVVLPNFRSNRPQVRPLSPGESGAWDIPGGIMPGRYNQEVGQTIPVFAFLGAMVALAFFVVQISKAKSRPKRRRPRAKRPQLTQQTHPPRTPSV"}}, "key": {"[1]": {"tested_on": "furin", "settings": "cited from earlier work"}, "[2]": {"tested_on": "SREBP-2", "assay": "Immunoblot of cleavage of HSV-tagged SREBP-2 in transfected SRD-12B cells", "type": "cell-based, hamster", "settings": "for cleavage of SREBP-2 by S1P or S1P mutant: SRD-12B cells, HSV-tagged SREBP-2", "description": "On day 0, SRD-12B cells were set up at a density of 6×10^5 cells/60-mm dish in medium B. On day 1, cells were transfected with 4 μg of the indicated plasmid DNA plus 12 μl of LipofectAMINE™ reagent (Life Technologies) according to the manufacturer's instructions with modifications as follows. LipofectAMINE™/DNA complexes were formed in 1 ml of serum-free medium for 15 min at room temperature, and 0.5 ml were added to 1 ml of serum-free medium per dish. […] After incubation at 37 ° C. for 20 h, the cells received N-acetyl-leucinal-leucinal norleucinal (ALLN) at a final concentration of 25 μg/ml. […] After boiling for 5 min, the proteins were subjected to SDS-PAGE and transferred to Hybond-C Extra nitrocellulose filters (Amersham). The filters were incubated with the antibodies described in the figure legends. […] Gels were calibrated with prestained molecular weight markers (New England Biolabs, Beverly, Mass.). Filters were exposed to X-Omat Blue XB-1 film (Kodak, Rochester, N.Y.) with intensifying screens at room temperature for the indicated time.\nCell membranes and nuclear extracts were subjected to electrophoresis and blotted with an antibody against the HSV epitope-tag.\nIn a more direct test for S1P catalytic activity, the mutant plasmids were transfected into the SRD-12B cells together with pTK-HSV-BP2. Membranes and nuclear extracts were subjected to SDS-PAGE and blotted with an antibody against the HSV-tagged SREBP-2 (FIG. 9B).\nThe inventors cotransfected cDNAs encoding wild-type S1P or one of the mutants. Cell membrane pellets and nuclear extracts were subjected to SDS-PAGE. and the NH2 -terminus of SREBP-2 was visualized by immunoblotting with anti-HSV (FIG. 16A)."}}}
{"molecule": "O=C(O)CN(CCN(CC(=O)O)CC(=O)O)CC(=O)O", "note": "[EDTA]", "values": [{"measurement": "inhibition of furin", "setting": "[1]; Nakayama, 1997, Molloy et al., 1992", "result": "totally inhibited"}]}
{"molecule": "furin: subtilisin-like protease, literature comparator", "values": [{"measurement": "Kcat (furin in a similar assay)", "setting": "[1]; Molloy et al., 1992", "result": "1.6 mol/min per mol of enzyme"}, {"measurement": "pH optimum", "setting": "[1]; furin and the prohormone convertases, Nakayama, 1997", "result": "6-7"}]}
{"molecule": "B1", "values": [{"measurement": "cleavage of SREBP-2 by S1P or S1P mutant", "setting": "[2]", "result": "weak activity"}, {"measurement": "expression level required for SREBP-2 cleavage, compared to wild-type S1P", "setting": "[2]; pTK plasmids, FIG. 16", "result": "> 10 -fold"}]}
{"molecule": "B2", "values": [{"measurement": "cleavage of SREBP-2 by S1P or S1P mutant", "setting": "[2]", "result": "no detectable cleaved nuclear form"}]}
{"molecule": "B3", "values": [{"measurement": "cleavage of SREBP-2 by S1P or S1P mutant", "setting": "[2]", "result": "inactive"}]}
{"molecule": "B4", "values": [{"measurement": "cleavage of SREBP-2 by S1P or S1P mutant", "setting": "[2]", "result": "active"}]}
{"molecule": "B5", "values": [{"measurement": "cleavage of SREBP-2 by S1P or S1P mutant", "setting": "[2]", "result": "active"}]}
